Positions of bridges follow the written chain, without caps; N, C: chain ends.
Legend:
[1] = Peptide fraction helicity by CD at 222 nm, peptide-only samples; format: physicochemical; details: CD signal at 222 nm of peptide-only samples; pH 7.4 phosphate/KF/TCEP buffer; duplicate experiments
Experimental: (§1) The precise nature of the interaction between the cJun DBD and the rationally designed acidic domain of HW1 is unknown. HW1 was, therefore, iteratively truncated from the N terminus (HW2–6) to investigate the effect on cJun binding and cJun/TRE DNA antagonism (Table 1). Peptide fraction helicity (fH) was determined by quantifying the circular dichroism (CD) signal at 222 nm of peptide-only samples (Figure S1). Thermal denaturation experiments were then used to determine the melting temperature (Tm) of peptide-cJun heterodimers, which serves as an approximate measure of target engagement. CD was also used to investigate the functional activity of peptides in antagonizing the cJun/TRE DNA interaction. […] This provides a clear and direct measurement of the proportion of DNA bound to cJun. As antagonist peptide concentration was increased, the peak shifted to overlay with that of free TRE-DNA (Figure S4). For each peptide, the data were fit to a Hill equation to determine half-maximal inhibitory concentration (IC50) values, specific to these assay conditions, providing a clear comparative measure of antagonism. The same 60 amino acid cJun construct, encompassing the entire bZIP domain, was used for all experiments regardless of antagonist peptide length.

[2] = target: T1, cJun (Homo sapiens, UniProt P05412); experiment: CD thermal denaturation of peptide-cJun heterodimers (Tm); format: binding; details: CD ellipticity at 222 nm, 1-90 °C; peptide (5 μM)/cJun (5 μM); 20 mM potassium phosphate, 150 mM potassium fluoride, 2 mM TCEP pH 7.4; two-state fit; duplicate experiments, ± one SD
T1 construct: The same 60 amino acid cJun construct, encompassing the entire bZIP domain, was used for all experiments
Experimental: as §1
Figure 2 Iterative N-terminal truncation of HingeW reduces cJun binding and antagonism (A) Thermal denaturation profiles for iteratively truncated peptide (5 μM)/cJun (5 μM) heterodimer samples. (B) CD antagonism data produced by monitoring the shift in a DNA specific peak to provide a direct readout of cJun-DNA binding. Peptides are added at the indicated concentrations to a pre-incubated mixture of cJun (20 μM) and TRE DNA (5 μM). Data points were averaged from triplicate experiments, and error bars indicate one SD. The data were fitted to a Hill equation to determine IC50 values. Some higher peptide concentration data points for HW6 and HW9 are not shown in this plot for clarity.

[3] = target: T1, cJun; experiment: Isothermal titration calorimetry (ITC) with cJun; format: binding; details: 25 °C, pH 7.4, one-site model, average of two experiments ± one SD
From the text: A selection of peptides from this work were investigated by isothermal titration calorimetry (ITC) to quantify the thermodynamic parameters of their interaction with target cJun (Figure 4 and S6; Table 2). The determined equilibrium binding constant (KD) values follow from the CD data above and can be rationalized in terms of the truncation or lactamization they represent. […] All interactions investigated were dominated by the enthalpic component, with a smaller unfavorable entropic contribution, other than for HW8/cJun, which is the weakest interaction. The unfavorable entropic component was largest for the HW30/cJun interaction and smallest for HW23/cJun. This indicates the introduction of lactams produces a more unfavorable entropic component, perhaps a surprising result as helix-inducing lactamization is typically considered to increase affinity through entropic pre-organization. However, the larger increase in the favorable enthalpic component produces an increase in binding affinity due to lactamization. This is likely to be caused by a combination of enhanced intermolecular contacts and ordering that are opposed by unfavorable desolvation effects.
Two-μL injections of antagonist peptide at 25–200 μM were injected into the cell containing cJun at 2.5–20 μM at 25°C. Microcal Control and Analysis software were used to record and analyze the heat change upon addition and fit the data to a one-site binding model to extract the enthalpy change of binding (ΔH) and the KD, from which the free energy change of binding (ΔG) and the entropy change of binding (ΔS) were calculated.[40] Control experiments involved the injection of the antagonist peptide sample into the cell containing ITC buffer alone to determine the heat of dilution, which was subtracted. Thermodynamic parameters are presented as an average of two independent experiments with errors given as one SD.

[4] = target: T2, cJun (60 amino acid construct encompassing the entire bZIP domain) (UniProt P05412 252-315); experiment: CD thermal denaturation; peptide (5 μM) with cJun (5 μM); ellipticity at 222 nm, 1°C to 90°C; 20 mM potassium phosphate, 150 mM potassium fluoride, 2 mM TCEP, pH 7.4; two-state fit gives the Tm of the peptide-cJun heterodimer; duplicate experiments; details: both partners purified
[5] = target: T2, cJun (60 amino acid construct …); experiment: cell-based or functional assay
[6] = target: T2, cJun (60 amino acid construct …); experiment: ITC; antagonist peptide at 25–200 μM injected into cJun at 2.5–20 μM in the cell, 25°C; 20 mM potassium phosphate, 150 mM potassium fluoride, 2 mM TCEP, pH 7.4; one-site binding model; two independent experiments; details: both partners purified

T2 sequence (P05412 252-315): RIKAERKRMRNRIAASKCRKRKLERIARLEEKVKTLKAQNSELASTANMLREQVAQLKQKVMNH
T1 sequence (P05412 252-315 limits assumed): as the sequence (P05412 252-315) above

Row | Molecule | fH, peptide fraction helicity [1] | Tm of peptide-cJun heterodimer [2] | ΔH [3] | Stoichiometry, n ([3]; peptide 25-200 μM injected into cJun 2.5-20 μM) | Tm of the peptide-cJun heterodimer [4] | IC50 CD: peptide added to pre-incubated cJun (20 μM) and TRE DNA (5 μM); blocks cJun/TRE DNA binding [5] | Kd [6] | dH [6] | stoichiometry N [6]
1 | Ac-EAEELVVEEDVLEEEIEQLEERNYALRKEIEDLQKQLEKL-NH2 [HW4] | 45.5% | 64.1 ± 1.5 °C | -189.95 ± 8.09 kJ/mol | 0.91 ± 0.04 |  |  |  |  | 
2 | Ac-EAEELVVEEKVLEDEIEQLEERNYALRKEIEDLQKQ-NH2 [HW22] | 37.2% | 54.9 ± 1.2 °C |  |  |  |  |  |  | 
3 | Ac-LARENEELEKEAEELVVEEDVLEEEIEQLEERNYALRKEIEDLQKQLEKL-NH2 [HW2] | 32.8% | 68.5 ± 1.1 °C |  |  |  |  |  |  | 
4 | Ac-LEKEAEELVVEEDVLEEEIEQLEERNYALRKEIEDLQKQLEKL-NH2 [HW3] | 38.3% | 67.9 ± 0.9 °C |  |  |  |  |  |  | 
5 | Ac-EAEELVVEEDVLEEEIEQLEERNYALRKEIEDLQKQLEKL-NH2 (truncation NΔ20 CΔ3 of HW1; source: synthetic peptide (Fmoc SPPS, RP-HPLC purified)) [HW4] |  |  |  |  | 64.1 °C | 45.4 µM | 91.1 nM | -190 kJ/mol | 0.91
6 | Ac-EAEELVVEEDVLEEEIEQLEERNYALRKEIEDLQKQ-NH2 (truncation NΔ20 CΔ7 of HW1; source: synthetic peptide (Fmoc SPPS, RP-HPLC purified)) [HW8] |  |  |  |  | 57.1 °C | 82.1 µM | 1100 nM | -25.1 kJ/mol | 0.95
7 | Ac-EAEELVVEEDVLEEEIEQLEERNYALRKEIKDLQDQ-NH2 (lactam 31-35; SMILES CC[C@H](C)[C@H](NC(=O)[C@H](CCC(=O)O)NC(=O)[C@H](CCCCN)NC(=O)[C@H](CCCNC(=N)N)NC(=O)[C@H](CC(C)C)NC(=O)[C@H](C)NC(=O)[C@H](Cc1ccc(O)cc1)NC(=O)[C@H](CC(N)=O)NC(=O)[C@H](CCCNC(=N)N)NC(=O)[C@H](CCC(=O)O)NC(=O)[C@H](CCC(=O)O)NC(=O)[C@H](CC(C)C)NC(=O)[C@H](CCC(N)=O)NC(=O)[C@H](CCC(=O)O)NC(=O)[C@@H](NC(=O)[C@H](CCC(=O)O)NC(=O)[C@H](CCC(=O)O)NC(=O)[C@H](CCC(=O)O)NC(=O)[C@H](CC(C)C)NC(=O)[C@@H](NC(=O)[C@H](CC(=O)O)NC(=O)[C@H](CCC(=O)O)NC(=O)[C@H](CCC(=O)O)NC(=O)[C@@H](NC(=O)[C@@H](NC(=O)[C@H](CC(C)C)NC(=O)[C@H](CCC(=O)O)NC(=O)[C@H](CCC(=O)O)NC(=O)[C@H](C)NC(=O)[C@H](CCC(=O)O)NC(C)=O)C(C)C)C(C)C)C(C)C)[C@@H](C)CC)C(=O)N[C@H]1CCCCNC(=O)C[C@@H](C(=O)N[C@@H](CCC(N)=O)C(N)=O)NC(=O)[C@H](CCC(N)=O)NC(=O)[C@H](CC(C)C)NC(=O)[C@H](CC(=O)O)NC1=O, cyclized form of the pair HW28/HW29; NΔ20 CΔ7; source: synthetic peptide (Fmoc SPPS, on-resin lactamization, RP-HPLC purified)) [HW29] |  |  |  |  | 65 °C | 52.7 µM | 86.5 nM | -98.7 kJ/mol | 0.97
8 | Ac-EAEELVVEEKVLEDEIEQLEERNYALRKEIKDLQDQ-NH2 (lactam 10-14, 31-35; SMILES CC[C@H](C)[C@H](NC(=O)[C@H](CCC(=O)O)NC(=O)[C@H](CCCCN)NC(=O)[C@H](CCCNC(=N)N)NC(=O)[C@H](CC(C)C)NC(=O)[C@H](C)NC(=O)[C@H](Cc1ccc(O)cc1)NC(=O)[C@H](CC(N)=O)NC(=O)[C@H](CCCNC(=N)N)NC(=O)[C@H](CCC(=O)O)NC(=O)[C@H](CCC(=O)O)NC(=O)[C@H](CC(C)C)NC(=O)[C@H](CCC(N)=O)NC(=O)[C@H](CCC(=O)O)NC(=O)[C@@H](NC(=O)[C@H](CCC(=O)O)NC(=O)[C@@H]1CC(=O)NCCCC[C@H](NC(=O)[C@H](CCC(=O)O)NC(=O)[C@H](CCC(=O)O)NC(=O)[C@@H](NC(=O)[C@@H](NC(=O)[C@H](CC(C)C)NC(=O)[C@H](CCC(=O)O)NC(=O)[C@H](CCC(=O)O)NC(=O)[C@H](C)NC(=O)[C@H](CCC(=O)O)NC(C)=O)C(C)C)C(C)C)C(=O)N[C@@H](C(C)C)C(=O)N[C@@H](CC(C)C)C(=O)N[C@@H](CCC(=O)O)C(=O)N1)[C@@H](C)CC)C(=O)N[C@H]1CCCCNC(=O)C[C@@H](C(=O)N[C@@H](CCC(N)=O)C(N)=O)NC(=O)[C@H](CCC(N)=O)NC(=O)[C@H](CC(C)C)NC(=O)[C@H](CC(=O)O)NC1=O, double lactamized peptide; NΔ20 CΔ7; also called double lactam peptide HW30; source: synthetic peptide (Fmoc SPPS, on-resin lactamization, RP-HPLC purified)) [HW30] |  |  |  |  | 63.2 °C | 44.9 µM | 9.69 nM | -128 kJ/mol | 1.05
9 | Ac-EAEELVVEEKVLEDEIEQLEERNYALRKEIEDLQKQ-NH2 (lactam 10-14; SMILES CC[C@H](C)[C@H](NC(=O)[C@H](CCC(=O)O)NC(=O)[C@H](CCCCN)NC(=O)[C@H](CCCNC(=N)N)NC(=O)[C@H](CC(C)C)NC(=O)[C@H](C)NC(=O)[C@H](Cc1ccc(O)cc1)NC(=O)[C@H](CC(N)=O)NC(=O)[C@H](CCCNC(=N)N)NC(=O)[C@H](CCC(=O)O)NC(=O)[C@H](CCC(=O)O)NC(=O)[C@H](CC(C)C)NC(=O)[C@H](CCC(N)=O)NC(=O)[C@H](CCC(=O)O)NC(=O)[C@@H](NC(=O)[C@H](CCC(=O)O)NC(=O)[C@@H]1CC(=O)NCCCC[C@H](NC(=O)[C@H](CCC(=O)O)NC(=O)[C@H](CCC(=O)O)NC(=O)[C@@H](NC(=O)[C@@H](NC(=O)[C@H](CC(C)C)NC(=O)[C@H](CCC(=O)O)NC(=O)[C@H](CCC(=O)O)NC(=O)[C@H](C)NC(=O)[C@H](CCC(=O)O)NC(C)=O)C(C)C)C(C)C)C(=O)N[C@@H](C(C)C)C(=O)N[C@@H](CC(C)C)C(=O)N[C@@H](CCC(=O)O)C(=O)N1)[C@@H](C)CC)C(=O)N[C@@H](CCC(=O)O)C(=O)N[C@@H](CC(=O)O)C(=O)N[C@@H](CC(C)C)C(=O)N[C@@H](CCC(N)=O)C(=O)N[C@@H](CCCCN)C(=O)N[C@@H](CCC(N)=O)C(N)=O, cyclized form of the pair HW22/HW23; NΔ20 CΔ7; source: synthetic peptide (Fmoc SPPS, on-resin lactamization, RP-HPLC purified)) [HW23] |  |  |  |  | 64 °C | 74.9 µM | 69.5 nM | -59 kJ/mol | 1.2
10 | HingeW (HW1) (TBS-selected 63-mer (acidic extension plus leucine zipper) with MAS N-cap and GAP C-cap; not shown: 6xHis, C-terminal, kept) peptide: MASLEQRAEELARENEELEKEAEELVVEEDVLEEEIEQLEERNYALRKEIEDLQKQLEKLGAP |  |  |  |  | 71.2 °C | 13.4 µM | 0.21 nM | -130 kJ/mol | 0.93
